Laboratory results taken from article PMC5606203.

Experiments:
Assay in all cases: initial rates, colorimetric 2-naphthylamide release
[1] = substrate: N=C(N)NCCC[C@H](NC(=O)[C@@H](N)CCCNC(=N)N)C(=O)Nc1ccc2ccccc2c1; format: biochemical, Arabidopsis thaliana; conditions: 25 °C, pH 7.9, Tris-HCl (I = 0.01), 75 µM CoCl2, DPP III site
[2] = substrate: N=C(N)NCCC[C@H](NC(=O)[C@@H]1CCCN1)C(=O)Nc1ccc2ccccc2c1; format: biochemical, Arabidopsis thaliana; conditions: 25 °C, pH 7.9, Tris-HCl (I = 0.01), 75 µM CoCl2, DPP III site
[3] = substrate: C[C@H](N)C(=O)N[C@@H](CCCNC(=N)N)C(=O)Nc1ccc2ccccc2c1; format: biochemical, Arabidopsis thaliana; conditions: 25 °C, pH 7.9, Tris-HCl (I = 0.01), 75 µM CoCl2, DPP III site
[4] = substrate: N=C(N)NCCC[C@H](NC(=O)[C@@H](N)CCCNC(=N)N)C(=O)Nc1ccc2ccccc2c1; format: biochemical, Physcomitrium patens; conditions: 25 °C, pH 7.4, Tris-HCl (I = 0.01), 75 µM CoCl2, DPP III site
[5] = substrate: C[C@H](N)C(=O)N[C@@H](CCCNC(=N)N)C(=O)Nc1ccc2ccccc2c1; format: biochemical, Physcomitrium patens; conditions: 25 °C, pH 7.4, Tris-HCl (I = 0.01), 75 µM CoCl2, DPP III site

B1: AtND (Arabidopsis thaliana) (protein)
chain: MAEEHFDVLTKSGEKTGVSKPRGEVHRDGDYHRAVHVWIFVETTQQLLLQLRSDDKDSWPGQWDISSAGHISAGDTSLLSAQRELEEELGVKLPKDAFEKIFVFLQECVTNDGKFINNEFNDVYLVTILHPIPLEAFTLQKEEVSAVKYVPYEEYRNFLSKEDPAYVPYDVNGEYGKLFDIIRQRCQVNTEARSLSLQKQLQRYSPVTLEAKLTELSEADQKALGLIVKAAKIMDDIFYEQVWNSNPALRDWLKDHANASKLDKLKWDYFTINKSPWSSLDENEAFLSTADSAVKLLPGATKAIAGWKGLEYRAAFPVTKPPGANFYPPDMDKMEFTLWLNGLTEEQKHAATGFFSVIKRRSEANLDASDHLASSTKKLPDSNSDLYSIPYSEIYRPFLKKASEFLQKAGDLVSSPSLKKLLHSKAEAFLSNEYYESDIAWMDLDSKLDITIGPYETYEDEIFGYKATFETFIGIRDDKATADLKLFGDNLKLLEDNLPLESVYKSTDVSAAPIRVIQLIYNSGDVKGPQTVAYNLPNDEKIVKDRGTSMVMLKNVQEAKFEHILKPIAEITISKEQRGLVDFDSFFTHTICHECCHGIGPHTITLPGGQTSTVRKELQEVHSAMEEAKADIVGLWALKFLITKGLLSKSMVESMYVSFLAGCFRSIRFGLTEAHGKGQALQFNYLYEKGAFVFHEDSTFSVDFAKIEGAVESLSHEILTIQGKGDKNAATLLLNKYCTITGPLKTALENLERVKVPVDISPTFPLAEALMN
- Km [1]: 3.25 ± 1.12 µM
- kcat [1]: 0.002 ± 1.67e-05 s⁻¹
- kcat/Km [1]: 615 M⁻¹ s⁻¹
- Km [2]: 40.85 ± 12.09 µM
- kcat [2]: 0.0372 ± 0.005 s⁻¹
- kcat/Km [2]: 908 M⁻¹ s⁻¹
- Km [3]: 5.0 ± 0.3 µM
- kcat [3]: 0.0415 ± 0.0035 s⁻¹
- kcat/Km [3]: 8300 M⁻¹ s⁻¹

B2: PpND (Physcomitrium patens) (protein)
chain: MEGFQEEFSLGECLDVLTAAGLRTGDVKKRHLVHADGDYHRAVHVWLFVESTQELVLQKRADCKDSWPGLWDISSAGHISAGDTSLLTARRELQEELGITLPADAFEFLFDYLQECVINGGKYINNEYNDVYLVTLVDHIPVEAFTLQETEVSAVKYMKWQDYEDAVRKEDSSYVPCDVDGGYSALFSALRRRYEVDTSAKLEELQMHINRYVPVEIHGETTGLSKGDLLALSDTIRAAKLLDRIFLEQEWATNPALKDSLQAASGKSELDRLKFAYYLINKSPWSILDENDAFLTTADSAIQIAEGAVDESVTWGGKVRYRAAFPVEKAPGANFYPVDMDKEEFQAWKDGLDKGQQADATSFFTTIRRSGDIHDADGAKVHDLKIVPYSKEYATILKEASYLLHKAGDSAENPSLKRLLKAKADAFLSNDYYESDIAWMELDSPLDVTIGPYETYEDGLFGYKATFEAFIGIRDDEATQRLKLFSHNLQEMEDNLPMDDEYKSKTVTFSPIRVIQLLYNSGDVKGPQTVAFNLPNDDRIVKERGTAMVMLKNISQAKFDYILLPIANVCVEASQRGAVDFDSFFTHTICHECCHGIGPHNIVTPDGRASTVRLELQEVYSAIEEAKADIVGLWALHFLVDKGLLPRSLENTMYVSFLAGCFRSIRFGLEEAHGKGQALQFNFILEKGGFSYHPDGTFSVDYTKVRQCVEDLSRLILTIEAKGDKAGAEALLAKYAALTPQLQQSFDALQDVQVPVDIFPTFKLLDDIKL
- Km [4]: 10.63 ± 1.72 µM
- kcat [4]: 0.0137 ± 0.003 s⁻¹
- Km [5]: 17.21 ± 0.75 µM
- kcat [5]: 0.0106 ± 0.00262 s⁻¹
